# From publication PMC4762201 (Nature, 2016)
# T1: Prp6 (S. cerevisiae, UniProt P19735 1-899)
# T1 sequence: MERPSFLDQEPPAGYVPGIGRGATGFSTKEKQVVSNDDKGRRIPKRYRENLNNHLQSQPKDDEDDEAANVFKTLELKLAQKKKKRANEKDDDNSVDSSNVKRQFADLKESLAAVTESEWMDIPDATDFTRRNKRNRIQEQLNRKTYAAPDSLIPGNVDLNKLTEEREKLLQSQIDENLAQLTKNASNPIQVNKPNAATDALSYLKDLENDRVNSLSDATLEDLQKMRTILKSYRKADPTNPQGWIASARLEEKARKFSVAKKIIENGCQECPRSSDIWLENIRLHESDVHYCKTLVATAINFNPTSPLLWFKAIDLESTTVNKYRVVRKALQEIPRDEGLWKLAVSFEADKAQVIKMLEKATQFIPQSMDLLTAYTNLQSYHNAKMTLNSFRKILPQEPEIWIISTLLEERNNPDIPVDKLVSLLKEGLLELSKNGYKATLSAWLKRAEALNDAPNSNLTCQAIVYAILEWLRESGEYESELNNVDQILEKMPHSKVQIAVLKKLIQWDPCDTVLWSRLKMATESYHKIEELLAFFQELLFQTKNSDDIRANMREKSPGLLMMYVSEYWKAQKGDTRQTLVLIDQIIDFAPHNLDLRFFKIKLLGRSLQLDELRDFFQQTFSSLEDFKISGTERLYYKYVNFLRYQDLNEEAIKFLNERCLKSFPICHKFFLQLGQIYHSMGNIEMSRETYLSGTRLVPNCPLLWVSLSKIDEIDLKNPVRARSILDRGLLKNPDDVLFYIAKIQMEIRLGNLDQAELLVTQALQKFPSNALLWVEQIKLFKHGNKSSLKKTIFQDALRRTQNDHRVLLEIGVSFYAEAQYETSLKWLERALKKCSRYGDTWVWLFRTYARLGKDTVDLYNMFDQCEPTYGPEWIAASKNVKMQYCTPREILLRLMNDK
# B1: Snu66 (natural protein, S. cerevisiae, UniProt Q12420 1-587, looked up)
# chain: MNKTENLSIEETNEIREKLGMKPIPVFQEKNTDHKESLSIEETNELRASLGLKLIPPQQNFNSSPPNVHNTSKIDELREKITKFQKKANAPLRMAHLLEETNVNDDSSWLENMDAIPSSHESKRSSTLPRKGATKEDENIDLHNVQVSYNIEALSPKKDTILTLKESSIFDDTDSTEVLENVKAAEENADREKLRLRQMNKDRRQKKKILNVSSLDIEEEEEGEKHSITTTHLIIGAEQGVMKAPNTISAKPPTGKVKVNFDSANNMSDEDGGDFKPLKIKKRKIKDPRSTKARKSKITDKMEIVKLVDEDESLSWMEEEQPVTIINPRTSSNNELKGPEDLAREIEKARDEEKRRTESILKMREISNSIVVDEKVTFLNTLDTSLSERSATENKVKVHGEGEKNIGDVTNGHTKEGSGNNTLTEAVNNEPNYEGDAENAPNFFSGLASTLGYLRKKSVFTTGDVDLKPGKDVNNSESLRRDVRNKEHTGTGTYTKDKLHGLEQFTSSDSSNANTHSKRQDHYDPDIKLVYRDEKGNRLTTKEAYKKLSQKFHGTKSNKKKRAKMKSRIEARKNTPENGSLFEFDDN
# B2: Prp4 (natural protein)
# chain: MSKYIALENLPVDLQHKGATQNESTADILKQLPHERLQAVLEKIPEEDLEVRRLLSILKKPEVVENEDVQQRRIRLAEILMVDEIDLENINNMENINGEEVDEEDDEDFFTPATSELIFARRFLINYSLERSRKRLQKEMERHQKFNTRQELLSRRTELQRMANLELAGSQLVSTKPISAVSLSTDDMVVATGSWAGDLQVLNSQTLQPLTQKLDSHVGKIGAIDWHPDSNNQMISCAEDGLIKNFQYSNEEGGLRLLGDLVGHERRISDVKYHPSGKFIGSASHDMTWRLWDASTHQELLLQEGHDKGVFSLSFQCDGSLVCSGGMDSLSMLWDIRSGSKVMTLAGHSKPIYTVAWSPNGYQVATGGGDGIINVWDIRKRDEGQLNQILAHRNIVTQVRFSKEDGGKKLVSCGYDNLINVYSSDTWLKMGSLAGHTDKIISLDISNNSHFLVSGGWDRSIKLWN
# B3: Prp31 (natural protein)
# chain: MSSEEDYFDELEYDLADEVNEEKEDIQTKKLTTVNCQTEKFNPFEILPESIELFRTLALISPDRLSLSETAQILPKIVDLKRILQQQEIDFIKLLPFFNEIIPLIKSNIKLMHNFLISLYSRRFPELSSLIPSPLQYSKVISILENENYSKNESDELFFHLENKAKLTREQILVLTMSMKTSFKNKEPLDIKTRTQILEANSILENLWKLQEDIGQYIASKISIIAPNVCFLVGPEIAAQLIAHAGGVLEFSRIPSCNIASIGKNKHLSHELHTLESGVRQEGYLFASDMIQKFPVSVHKQMLRMLCAKVSLAARVDAGQKNGDRNTVLAHKWKAELSKKARKLSEAPSISETKALPIPEDQPKKKRAGRKFRKYKEKFRLSHVRQLQNRMEFGKQEQTVLDSYGEEVGLGMSNTSLQQAVGATSGSRRSAGNQAKLTKVMKHRISEANQQADEFLISLGHNTEQPNLSPEMVQMHKKQHTNPEEETNWFSGHG
# B4: Dib1 (natural protein, S. cerevisiae, UniProt Q06819 1-143, looked up)
# chain: MASVLLPQLRTGWHVDQAIVTETKRLVVIRFGRKNDRQCMIMDELLSSIAERVRNFAVIYLCDIDEVSDFDEMYELTDPMTVMFFYHNKHMMCDFGTGNNNKLNFIVDDKQEMIDILETIFRGARKNKGLVVSPYDYNHKRVS
# B5: Prp3 (natural protein)
# chain: MPPRNTYEKGNPKRQNSPYYKPSFLRREETTNDEEKFQGHGLKTELHSALKSSNLNLIRRTYQTGENPYLSDPHDRGSSSRFNRRYERGLKFYQKGEISKRIAQERTLQKQQEEEELKRKLKQEEDEKDKRKLIESGDLPNLELHEDKFLLDLSKFKIYYDNNHGYEWWDTAYLDEKGELMEKYDMNGTSPAEEKLAEDIDEVDDDDDDEHPSIRYVAHPLPEKINEAKVSIKAYLTQHERKRLRRNRRKMAREAREIKIKLGLLPKPEPKVKLSNMMSVFENDQNITDPTAWEKVVKDQVDLRKRKHLEENERRHEDAIKRRKEAVNMNVEKPTVYHCKVFQFKNLQNPKIRFKLKMNSKELSLKGLCLRIRDDGPGIIIVVGNEKSCKFYENLVMKRIKWNEDFELHTNTGDIKMDMHNNSISKTWEGYLQDCKFKGWFMKVCNDQDSLLRTLGQFDSEHFYSPVQT
# B6: Snu13 (natural protein, S. cerevisiae, UniProt P39990 1-126, looked up)
# chain: MSAPNPKAFPLADAALTQQILDVVQQAANLRQLKKGANEATKTLNRGISEFIIMAADCEPIEILLHLPLLCEDKNVPYVFVPSRVALGRACGVSRPVIAASITTNDASAIKTQIYAVKDKIETLLI
# Columns and labels:
# Test in all cases: cryo-EM structure
# [1] = target: Brr2 (S. cerevisiae, UniProt P32639 1-2163)
# [2] = target: B5
# [3] = target: T1, Prp6
# [4] = target: B3
# [5] = target: B2
# Brr2, sequence (P32639 whole entry): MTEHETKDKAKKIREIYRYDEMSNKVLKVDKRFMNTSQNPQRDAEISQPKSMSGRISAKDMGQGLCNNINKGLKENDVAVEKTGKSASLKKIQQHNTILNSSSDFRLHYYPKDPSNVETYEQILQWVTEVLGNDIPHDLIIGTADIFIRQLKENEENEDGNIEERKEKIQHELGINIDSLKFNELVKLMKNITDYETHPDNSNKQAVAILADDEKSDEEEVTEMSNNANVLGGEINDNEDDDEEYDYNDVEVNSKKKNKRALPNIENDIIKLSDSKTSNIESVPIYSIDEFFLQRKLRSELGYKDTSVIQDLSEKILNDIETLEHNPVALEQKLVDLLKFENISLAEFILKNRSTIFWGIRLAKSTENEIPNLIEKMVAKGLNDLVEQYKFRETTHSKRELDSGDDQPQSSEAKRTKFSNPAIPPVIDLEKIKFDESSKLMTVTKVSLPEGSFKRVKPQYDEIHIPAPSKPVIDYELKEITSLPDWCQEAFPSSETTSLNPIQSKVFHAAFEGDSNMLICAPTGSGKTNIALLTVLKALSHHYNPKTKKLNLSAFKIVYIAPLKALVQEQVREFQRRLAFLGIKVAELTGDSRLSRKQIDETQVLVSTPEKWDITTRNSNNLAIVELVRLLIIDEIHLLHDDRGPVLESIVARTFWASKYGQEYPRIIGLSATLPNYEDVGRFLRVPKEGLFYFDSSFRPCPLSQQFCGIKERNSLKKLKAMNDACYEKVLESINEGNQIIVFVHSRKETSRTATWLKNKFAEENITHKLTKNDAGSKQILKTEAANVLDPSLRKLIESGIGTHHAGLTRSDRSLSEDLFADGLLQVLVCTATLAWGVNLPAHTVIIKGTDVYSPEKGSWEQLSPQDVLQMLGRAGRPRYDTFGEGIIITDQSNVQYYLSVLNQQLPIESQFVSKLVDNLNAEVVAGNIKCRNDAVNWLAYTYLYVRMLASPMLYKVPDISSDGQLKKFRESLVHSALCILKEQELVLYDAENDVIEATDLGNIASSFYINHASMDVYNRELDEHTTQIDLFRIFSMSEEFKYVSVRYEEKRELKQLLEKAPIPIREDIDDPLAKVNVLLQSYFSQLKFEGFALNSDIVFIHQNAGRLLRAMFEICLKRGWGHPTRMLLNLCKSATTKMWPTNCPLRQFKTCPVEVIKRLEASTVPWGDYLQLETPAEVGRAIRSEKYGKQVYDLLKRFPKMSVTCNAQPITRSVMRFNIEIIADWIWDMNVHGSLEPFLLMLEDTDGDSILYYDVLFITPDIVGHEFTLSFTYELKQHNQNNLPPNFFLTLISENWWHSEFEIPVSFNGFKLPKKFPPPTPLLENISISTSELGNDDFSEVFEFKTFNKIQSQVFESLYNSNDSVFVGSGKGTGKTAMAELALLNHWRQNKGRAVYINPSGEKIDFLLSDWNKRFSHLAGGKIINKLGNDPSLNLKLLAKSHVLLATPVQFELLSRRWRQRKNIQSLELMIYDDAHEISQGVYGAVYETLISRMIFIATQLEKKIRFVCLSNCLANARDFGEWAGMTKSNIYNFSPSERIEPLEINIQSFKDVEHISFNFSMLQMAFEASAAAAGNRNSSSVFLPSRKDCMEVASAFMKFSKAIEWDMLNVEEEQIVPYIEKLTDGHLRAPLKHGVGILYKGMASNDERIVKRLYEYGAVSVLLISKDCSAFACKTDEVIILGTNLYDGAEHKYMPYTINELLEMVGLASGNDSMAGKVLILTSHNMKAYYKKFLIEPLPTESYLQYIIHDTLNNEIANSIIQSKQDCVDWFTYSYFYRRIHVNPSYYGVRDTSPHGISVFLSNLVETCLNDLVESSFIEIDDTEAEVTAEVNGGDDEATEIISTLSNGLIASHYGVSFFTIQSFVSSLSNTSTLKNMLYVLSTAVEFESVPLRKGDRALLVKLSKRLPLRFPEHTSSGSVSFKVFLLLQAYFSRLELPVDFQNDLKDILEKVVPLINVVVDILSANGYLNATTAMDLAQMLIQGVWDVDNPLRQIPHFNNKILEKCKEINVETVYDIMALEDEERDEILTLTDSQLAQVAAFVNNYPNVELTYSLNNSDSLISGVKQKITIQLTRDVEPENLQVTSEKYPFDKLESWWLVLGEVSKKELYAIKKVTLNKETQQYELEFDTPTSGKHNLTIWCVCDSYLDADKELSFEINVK
Binder,binding result [1],binding result [2],binding result [4],also measured
B1,binds,,,
B2,,binds,,
B3,,,,binding result [3]: binds
B4,,,binds,
B5,binds,,,
B6,,binds,binds,binding result [5]: binds
